Results reported in the supplement of paper PMC10567573.

B1: ADAMTS4 (parent)
chain: HVDPEEPWSPCSARFITDFLDNGY

Variants of: B1
Assay: protein stability index of a GFP-peptide fusion (GPS, HEK-293T) (PSI 1-6); higher = more stable
Settings: c terminus: a fixed tail appended
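Also: lentivirally expressed fusions sorted by FACS into six bins by GFP to DsRed ratio, PSI derived from sequencing read proportions per bin multiplied by bin number.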

Variant | protein stability index
HVDPEEPWSPCSARFITCFLDNGY | 2.73
HVDPEEPWSPCSARFITPFLDNGY | 2.17
HVDPEEPWSPCSARFITRFLDNGY | 1.13
HVDPEEPWSPCSARFITVFLDNGY | 2.03
HVDPEEPWSPCSARFITMFLDNGY | 2.9
HVDPEEPWSPCSARFITYFLDNGY | 1.94
HVDPEEPWSPCSARFITTFLDNGY | 1.65
HVDPEEPWSPCSARFITLFLDNGY | 2.6
HVDPEEPWSPCSARFITSFLDNGY | 1.61
HVDPEEPWSPCSARFITGFLDNGY | 1.59
HVDPEEPWSPCSARFITEFLDNGY | 1.99
HVDPEEPWSPCSARFITHFLDNGY | 1.89
HVDPEEPWSPCSARFITNFLDNGY | 1.58
HVDPEEPWSPCSARFITWFLDNGY | 1.53
HVDPEEPWSPCSARFITAFLDNGY | 2.2
HVDPEEPWSPCSARFIMDFLDNGY | 2.38
HVDPEEPWSPCSARFINDFLDNGY | 1.62
HVDPEEPWSPCSARFIQDFLDNGY | 1.77
HVDPEEPWSPCSARFIRDFLDNGY | 2.03
HVDPEEPWSPCSARFIDDFLDNGY | 1.81
HVDPEEPWSPCSARFICDFLDNGY | 2.04
HVDPEEPWSPCSARFIVDFLDNGY | 1.83
HVDPEEPWSPCSARFISDFLDNGY | 1.88
HVDPEEPWSPCSARFILDFLDNGY | 2.39

Variant | protein stability index
HVDPEEPWSPCSARFIYDFLDNGY | 1.83
HVDPEEPWSPCSARFIGDFLDNGY | 1.71
HVDPEEPWSPCSARFIFDFLDNGY | 1.41
HVDPEEPWSPCSARFIHDFLDNGY | 2.05
HVDPEEPWSPCSARFIWDFLDNGY | 1.86
HVDPEEPWSPCSARFIADFLDNGY | 1.87
HVDPEEPWSPCSARFIPDFLDNGY | 1.88
HVDPEEPWSPCSARFIKDFLDNGY | 1.71
HVDPEEPWSPCSARFIIDFLDNGY | 2.13
HVDPEEPWSPCSARFIEDFLDNGY | 1.57
HVDPEEPWSPVSARFITDFLDNGY | 1.82
HVDPEEPWSPYSARFITDFLDNGY | 3.06
HVDPEEPWSPWSARFITDFLDNGY | 1.86
HVDPEEPWSPCNARFITDFLDNGY | 2.05
HVDPEEPWSPCGARFITDFLDNGY | 1.61
HVDPEEPWSPCTARFITDFLDNGY | 1.47
HVDPEEPWSPCEARFITDFLDNGY | 1.88
HVDPEEPWSPCQARFITDFLDNGY | 2.1
HVDPEEPWSPCYARFITDFLDNGY | 1.83
HVDPEEPWSPCLARFITDFLDNGY | 2.12
HVDPEEPWSPCAARFITDFLDNGY | 1.68
HVDPEEPWSPCHARFITDFLDNGY | 2.31
HVDPEEPWSPCFARFITDFLDNGY | 1.86
HVDPEEPWSPCIARFITDFLDNGY | 2.16

Variant | protein stability index
HVDPEEPWSPCKARFITDFLDNGY | 1.55
HVDPEEPWSPCVARFITDFLDNGY | 2.01
HVDPEEPWSPCMARFITDFLDNGY | 1.57
HVDPEEPWSPCCARFITDFLDNGY | 1.8
HVDPEEPWSPCPARFITDFLDNGY | 1.4
HVDPEEPWSPCRARFITDFLDNGY | 1.97
HVDPEEPWSPCWARFITDFLDNGY | 1.67
HVDPEEPWSPCDARFITDFLDNGY | 2.39
HVDPEEPWSPCSAAFITDFLDNGY | 2.05
HVDPEEPWSPCSAPFITDFLDNGY | 1.87
HVDPEEPWSPCSATFITDFLDNGY | 1.83
HVDPEEPWSPCSAMFITDFLDNGY | 1.51
HVDPEEPWSPCSANFITDFLDNGY | 1.86
HVDPEEPWSPCSAFFITDFLDNGY | 2.27
HVDPEEPWSPCSAGFITDFLDNGY | 2.15
HVDPEEPWSPCSAVFITDFLDNGY | 1.56
HVDPEEPWSPCSAHFITDFLDNGY | 1.84
HVDPEEPWSPCSAQFITDFLDNGY | 2
HVDPEEPWSPCSASFITDFLDNGY | 2.02
HVDPEEPWSPCSACFITDFLDNGY | 1.66
HVDPEEPWSPCSAWFITDFLDNGY | 1.58
HVDPEEPWSPCSAEFITDFLDNGY | 2.58
HVDPEEPWSPCSADFITDFLDNGY | 2.45
HVDPEEPWSPCSAYFITDFLDNGY | 1.71

Variant | protein stability index
HVDPEEPWSPCSAIFITDFLDNGY | 2.28
HVDPEEPWSPCSAKFITDFLDNGY | 2.32
HVDPEEPWSPCSALFITDFLDNGY | 2.13
HVDPEEPWSPCSARFITDFRDNGY | 2.3
HVDPEEPWSPCSARFITDFSDNGY | 1.82
HVDPEEPWSPCSARFITDFHDNGY | 1.92
HVDPEEPWSPCSARFITDFFDNGY | 2.04
HVDPEEPWSPCSARFITDFTDNGY | 2.13
HVDPEEPWSPCSARFITDFWDNGY | 1.59
HVDPEEPWSPCSARFITDFADNGY | 1.96
HVDPEEPWSPCSARFITDFKDNGY | 1.93
HVDPEEPWSPCSARFITDFDDNGY | 2.22
HVDPEEPWSPCSARFITDFEDNGY | 2.24
HVDPEEPWSPCSARFITDFMDNGY | 1.82
HVDPEEPWSPCSARFITDFQDNGY | 2.28
HVDPEEPWSPCSARFITDFNDNGY | 2.39
HVDPEEPWSPCSARFITDFPDNGY | 2.15
HVDPEEPWSPCSARFITDFVDNGY | 1.92
HVDPEEPWSPCSARFITDFYDNGY | 2.14
HVDPEEPWSPCSARFITDFGDNGY | 2.31
HVDPEEPWSPCSARFITDFCDNGY | 1.52
HVDPEEPWSPCSARFITDFIDNGY | 1.78
